Molecular target: T1, β2m of the single-chain construct (Homo sapiens (Human)., UniProt P61769)
T1 construct: β2-microglobulin; In the cryo-EM sample it is the middle part of m3; also called B2m; source: part of the single-chain construct m3
Test: cryo-EM structure; single-chain P2R-linker-β2m-linker-B∗73:01 copurified with Fabs B.1 and B.8; Hepes-buffered saline pH 7.2, about 0.07 mM fluorinated octyl maltoside; 3.1 Å
Conditions: both partners purified

binding result: binds
B1: Fab B.1 (Fab, V domains shown)
VH: EVQLVESGGGLVQPGGSLRLSCAASGFNVSYYSIHWVRQAPGKGLEWVASISPYSGSTSYADSVKGRFTISADTSKNTAYLQMNSLRAEDTAVYYCARYSYGNSWSYDPYYGAMDYWGQGTLVTVSS
VL: DIQMTQSPSSLSASVGDRVTITCRASQSVSSAVAWYQQKPGKAPKLLIYSASSLYSGVPSRFSGSRSGTDFTLTISSLQPEDFATYYCQQYYWAPITFGQGTKVEIK
notes: synthetic Fab; model deposited in PDB 8TNJ (constant domain portion not visible in the map)

Reference: paper PMC12450638 (The Journal of Biological Chemistry, 2025)
